From patent publication US20250304690A1 (HANGZHOU VIROMAB BIOTECH, published 2025)
Changes are numbered by the printed parent chain.

B1: BK-D-08 (bispecific antibody, human IgG1, kappa)
heavy: QVQLVQSGAEVKKPGASVKVSCKASGYTFTNYYMKWVKQAPGQRLEWMGDLNPNNGDTFYNQKFKGRVTITVDKSASTAYMELSSLRSEDTAVYYCARTGRYEENAMDYWGQGTLVTVSSASTKGPSVFPLAPSSKSTSGGTAALGCLVKDYFPEPVTVSWNSGALTSGVHTFPAVLQSSGLYSLSSVVTVPSSSLGTQTYICNVNHKPSNTKVDKRVEPKSCDKTHTCPPCPAPEFEGGPSVFLFPPKPKDTLMISRTPEVTCVVVDVSHEDPEVKFNWYVDGVEVHNAKTKPREEQYNSTYRVVSVLTVLHQDWLNGKEYKCKVSNKALPASIEKTISKAKGQPREPQVYTLPPSREEMTKNQVSLTCLVKGFYPSDIAVEWESNGQPENNYKTTPPVLDSDGSFFLYSKLTVDKSRWQQGNVFSCSVMHEALHNHYTQKSLSLSPGKGGGGSGGGGSGGGGSQAVVTQEPSLTVSPGGTVTLTCRSSTGAVTTSNYANWVQQKPGQAPRGLIGGTNKRAPWTPARFSGSLLGGKAALTLSGAQPEDEAEYYCALWYSNLWVFGGGTKLTVLGGGGSGGGGSGGGGSEVQLVESGGGLVQPGGSLRLSCAASGFTFNTYAMNWVRQAPGKGLEWVARIRSKYNNYATYYADSVKDRFTISRDDSKNILYLQMNSLKTEDTAMYYCVRHGNFGNSYVSWFAYWGQGTLVTVSA
light: DIVLTQSPASLAVSPGQRATITCRASESVDSYGKSFMHWYQQKPGQPPKLLIYRASNLESGVPARFSGSGSRTDFTLTINPVEANDTANYYCQQNNEDPWTFGQGTKLEIKRTVAAPSVFIFPPSDEQLKSGTASVVCLLNNFYPREAKVQWKVDNALQSGNSQESVTEQDSKDSTYSLSSTLTLSKADYEKHKVYACEVTHQGLSSPVTKSFNRGEC
B2: BK-D-03 (bispecific antibody, human IgG1, kappa)
heavy: B1 heavy with I669S, M684V
light: B1 light with I2L, L4M, Q42L
B3: BK-D-04 (bispecific antibody, human IgG1, kappa)
heavy: B1 heavy with T525V, G536D, P547T, I669S, M684V
light: B1 light
B4: BK-D-06 (bispecific antibody, human IgG1, kappa)
heavy: B1 heavy with Q505E, T525V, G536D, P547T, M684V
light: B1 light
B5: BK-D-09 (bispecific antibody, human IgG1, kappa)
heavy: B1 heavy with P547T, M684V
light: B1 light
B6: BK-D-01 (bispecific antibody, human IgG1, kappa)
heavy: B1 heavy with R44S, M48I, R67K, V68A, I70L, S84N, I669S, M684V
light: B1 light
B7: BK-D-05 (bispecific antibody, human IgG1, kappa)
heavy: B1 heavy with L542I, S543T, P547T, M684V
light: B1 light
B8: BK-D-02 (bispecific antibody, human IgG1, kappa)
heavy: B1 heavy with R44S, M48I, R67K, V68A, I70L, S84N
light: B1 light with I2L, L4M, Q42L
B9: BK-A-101 (bispecific antibody, human IgG1, kappa)
heavy: not shown
light: QAVVTQESALTTSPGETVTLTCRSSTGAVTTSNYANWVQEKPDHLFTGLIGGTNKRAPGVPARFSGSLIGDKAALTITGAQTEDEAIYFCALWYSNLWVFGGGTKLTVLRTVAAPSVFIFPPSDEQLKSGTASVVCLLNNFYPREAKVQWKVDNALQSGNSQESVTEQDSKDSTYSLSSTLTLSKADYEKHKVYACEVTHQGLSSPVTKSFNRGEC
notes: also called bispecific antibody; the bispecific antibody
B10: CD3 Ab07 (antibody, human IgG1, kappa, V domains shown)
VH: EVQLVESGGGLVQPGGSLRLSCAASGFTFNTYAMNWVRQAPGKGLEWVARIRSKYNNYATYYADSVKDRFTISRDDSKNILYLQMNSLKTEDTAVYYCVRHGNFGNSYVSWFAYWGQGTLVTVSA
VL: QAVVTQEPSLTVSPGGTVTLTCRSSTGAVTTSNYANWVQQKPGQAPRGLIGGTNKRAPWTPARFSGSLLGGKAALTLSGAQTEDEAEYYCALWYSNLWVFGGGTKLTVLR
notes: also called humanized anti-CD3 monoclonal antibody
B11: CD3 Ab11 (antibody, human IgG1, kappa, V domains shown)
VH: B10 VH with V95M
VL: B10 VL with T82P
notes: as for B10
B12: CD3 Ab14 (antibody, human IgG1, kappa, V domains shown)
VH: B10 VH with V95M
VL: B10 VL with T60V, G71D
notes: as for B10
B13: CD3 Ab01 (antibody, human IgG1, kappa, V domains shown)
VH: B10 VH with I80S
VL: B10 VL with T82P
notes: as for B10
B14: CD3 Ab05 (antibody, human IgG1, kappa, V domains shown)
VH: B10 VH with I80S
VL: B10 VL with Q40E, T60V, G71D
notes: as for B10
B15: CD3 Ab08 (antibody, human IgG1, kappa, V domains shown)
VH: B10 VH
VL: B10 VL with L77I, S78T
notes: as for B10
B16: CD3 Ab10 (antibody, human IgG1, kappa, V domains shown)
VH: B10 VH
VL: B10 VL with Q40E, T60V, G71D
notes: as for B10
B17: CD3 Ab02 (antibody, human IgG1, kappa, V domains shown)
VH: B10 VH with I80S
VL: B10 VL
notes: as for B10
B18: CD3 Ab15 (antibody, human IgG1, kappa, V domains shown)
VH: B10 VH with V95M
VL: B10 VL with Q40E, T60V, G71D
notes: as for B10
B19: CD3 Ab03 (antibody, human IgG1, kappa, V domains shown)
VH: B10 VH with I80S
VL: B10 VL with L77I, S78T
notes: as for B10
B20: CD3 Ab04 (antibody, human IgG1, kappa, V domains shown)
VH: B10 VH with I80S
VL: B10 VL with T60V, G71D
notes: as for B10
B21: CD3 Ab09 (antibody, human IgG1, kappa, V domains shown)
VH: B10 VH
VL: B10 VL with T60V, G71D
notes: as for B10
B22: CD3 Ab06 (antibody, human IgG1, kappa, V domains shown)
VH: B10 VH
VL: B10 VL with T82P
notes: as for B10
B23: CD3 Ab12 (antibody, human IgG1, kappa, V domains shown)
VH: B10 VH with V95M
VL: B10 VL
notes: as for B10
B24: CD3 Ab13 (antibody, human IgG1, kappa, V domains shown)
VH: B10 VH with V95M
VL: B10 VL with L77I, S78T
notes: as for B10

target: T1, CD3 on Jurkat cells and on human T cells (human, UniProt P07766 23-207); assay: flow cytometry on Jurkat cells
T1 construct: whole, on cells; also called CD3 end; CD3 antigen
T1 sequence (P07766 23-207): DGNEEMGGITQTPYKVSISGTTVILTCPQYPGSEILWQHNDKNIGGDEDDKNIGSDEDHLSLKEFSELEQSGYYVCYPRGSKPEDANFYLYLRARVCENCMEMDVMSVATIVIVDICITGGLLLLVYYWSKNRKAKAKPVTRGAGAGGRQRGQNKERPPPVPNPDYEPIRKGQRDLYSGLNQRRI
Protocol: Jurkat cells were plated, washed with a FACS buffer, and centrifuged at 1200 rpm for 3-5 min. Then diluted antibodies with different concentrations were added at 100 L/well. The cells were incubated at 4° C. for 0.5 h, centrifuged at 1200 rpm for 3-5 min, and washed with a FACS buffer. Then a diluted goat anti-human IgG (FITC, Abcam/ab97224) antibody was added. The cells were incubated at 4° C. for 0.5 h, centrifuged at 1200 rpm for 3-5 min, washed with a FACS buffer, and resuspended in 50 μL of a FACs buffer, and assays were performed using a flow cytometer.

Q: Which EC50 does the source give for B1 here?
A: 136 nM

Q: With B2 as the binder, how does the EC50 read?
A: 111 nM

Q: B3 was tested. Which EC50 did it give?
A: 18.2 nM

Q: With B4 as the binder, how does the EC50 read?
A: 32.6 nM

Q: For B5, which EC50 is on record?
A: 97.8 nM

Q: Which EC50 does the source give for B6 here?
A: 62.5 nM

Q: B7 was tested. Which EC50 did it give?
A: 71.4 nM

Q: How did the EC50 turn out when B8 was run?
A: 80.3 nM

Q: B9 was tested. Which EC50 did it give?
A: 0.8 nM

target: T1, CD3 on Jurkat cells and on human T cells; assay: flow cytometry on Jurkat cells; remark: another data set of the same source
Protocol: (§1) Then diluted antibodies with different concentrations were added. The cells were incubated at 4° C. for 0.5 h, centrifuged at 1200 rpm for 3-5 min, and washed with a FACS buffer. Then a goat anti-human IgG secondary antibody (manufacturer: Abcam, ab98596) was added at 100 L/well. The cells were incubated at 4° C. for 0.5 h, centrifuged at 1200 rpm for 3-5 min, washed with a FACs buffer, and resuspended in 50 μL of a FACs buffer, and assays were performed using a flow cytometer.

Q: Which EC50 does the source give for B10 here?
A: 2.42 nM

Q: With B11 as the binder, how does the EC50 read?
A: 4.45 nM

Q: B12 was tested. Which EC50 did it give?
A: 1.14 nM

Q: For B13, which EC50 is on record?
A: 3.3 nM

Q: B14 was tested. Which EC50 did it give?
A: 1.02 nM

Q: Which EC50 does the source give for B15 here?
A: 1.82 nM

Q: For B16, which EC50 is on record?
A: 0.784 nM

Q: With B17 as the binder, how does the EC50 read?
A: 2.64 nM

Q: For B18, which EC50 is on record?
A: 1.11 nM

Q: How did the EC50 turn out when B19 was run?
A: 2.28 nM

Q: For B20, which EC50 is on record?
A: 1.18 nM

Q: Which EC50 does the source give for B21 here?
A: 0.862 nM

Q: Which EC50 does the source give for B22 here?
A: 3.31 nM

Q: Which EC50 does the source give for B23 here?
A: 3.52 nM

Q: How did the EC50 turn out when B24 was run?
A: 3.19 nM

target: CD3 on 293T-CD3 cells; assay: flow cytometry on 293T-CD3 cells
Sequence (chain, as listed by the source): as the sequence (P07766 23-207) above
Protocol: as §1

Q: B10 was tested. Which EC50 did it give?
A: 9.02 nM

Q: How did the EC50 turn out when B11 was run?
A: 21.6 nM

Q: With B12 as the binder, how does the EC50 read?
A: 5.73 nM

Q: With B13 as the binder, how does the EC50 read?
A: 22.6 nM

Q: B14 was tested. Which EC50 did it give?
A: 4.27 nM

Q: How did the EC50 turn out when B15 was run?
A: 4.24 nM

Q: With B16 as the binder, how does the EC50 read?
A: 2.44 nM

Q: For B17, which EC50 is on record?
A: 12.3 nM

Q: How did the EC50 turn out when B18 was run?
A: 3.48 nM

Q: For B19, which EC50 is on record?
A: 10.1 nM

Q: For B20, which EC50 is on record?
A: 5.23 nM

Q: How did the EC50 turn out when B21 was run?
A: 4.4 nM

Q: For B22, which EC50 is on record?
A: 13 nM

Q: Which EC50 does the source give for B23 here?
A: 15.8 nM

Q: B24 was tested. Which EC50 did it give?
A: 12.4 nM

target: TT3 labeling polypeptide on cells; assay: flow cytometry on HCT116-TT3 cells
Sequence (P01732 other isoform, or with tags, fused parts or gaps limits assumed): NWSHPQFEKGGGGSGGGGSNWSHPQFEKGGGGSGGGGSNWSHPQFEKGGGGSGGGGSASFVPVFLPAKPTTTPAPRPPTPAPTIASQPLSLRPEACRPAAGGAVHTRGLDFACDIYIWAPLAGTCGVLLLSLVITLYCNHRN

Q: For B1, which EC50 is on record?
A: 0.368 nM

Q: Which EC50 does the source give for B2 here?
A: 0.464 nM

Q: Which EC50 does the source give for B3 here?
A: 0.47 nM

Q: With B4 as the binder, how does the EC50 read?
A: 0.908 nM

Q: B6 was tested. Which EC50 did it give?
A: 0.07 nM

Q: For B7, which EC50 is on record?
A: 1.04 nM

Q: Which EC50 does the source give for B8 here?
A: 0.099 nM

Q: With B9 as the binder, how does the EC50 read?
A: 15.8 nM

target: hCD3 (human CD3 antigen) (human, UniProt P07766 23-126); assay: ELISA, plate-coated hCD3
Sequence (P07766 23-126): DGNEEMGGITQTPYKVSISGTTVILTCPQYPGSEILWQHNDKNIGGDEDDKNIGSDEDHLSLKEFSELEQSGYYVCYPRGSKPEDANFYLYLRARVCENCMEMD
Protocol: The activity of the prepared humanized antibodies was assessed by ELISA as follows: hCD3 (human CD3 antigen) was diluted to 0.5 g/mL using a coating solution and then added to a 96-well plate at 100 μL/well, and the plate was incubated overnight at 4° C. The plate was washed with PBST. Then 200 µL of a blocking solution was added to each well, and blocking was performed at a temperature of 37° C. for 2 h. The plate was washed with PBST. Then diluted antibodies (the initial concentration was 40 nM, and serial dilution was performed in a 1:6 ratio) were added at 100 L/well, and the plate was incubated at a temperature of 37° C. for 2 h. The plate was washed with PBST. Then an HRP-labeled goat anti-human IgG was added at 100 L/well, and the plate was incubated at 37° C. for 1 h. The plate was washed with PBST, and TMB was added at 100 L/well. Color development was performed at 37° C. for 10-20 min, and 50 µL of 2 M H₂SO₄ was added to each well to stop the reaction. Readings were taken at 450 nm.

Q: With B10 as the binder, how does the EC50 read?
A: 0.0129 nM

Q: For B11, which EC50 is on record?
A: 0.0118 nM

Q: B12 was tested. Which EC50 did it give?
A: 0.0087 nM

Q: Which EC50 does the source give for B13 here?
A: 0.0096 nM

Q: How did the EC50 turn out when B14 was run?
A: 0.0099 nM

Q: How did the EC50 turn out when B15 was run?
A: 0.0116 nM

Q: With B16 as the binder, how does the EC50 read?
A: 0.002 nM

Q: B17 was tested. Which EC50 did it give?
A: 0.0117 nM

Q: Which EC50 does the source give for B18 here?
A: 0.0099 nM

Q: With B19 as the binder, how does the EC50 read?
A: 0.0042 nM

Q: For B20, which EC50 is on record?
A: 0.0068 nM

Q: How did the EC50 turn out when B21 was run?
A: 0.008 nM

Q: For B22, which EC50 is on record?
A: 0.0126 nM

Q: How did the EC50 turn out when B23 was run?
A: 0.0095 nM

Q: With B24 as the binder, how does the EC50 read?
A: 0.0099 nM
